From PMC9229378, “Copper-67-Labeled Bombesin Peptide for Targeted Radionuclide Therapy of Prostate Cancer” (Pharmaceuticals, 2022)

How the values were obtained:
[1] = system: GRPR-positive PC-3 cell line; experiment: Cell binding and internalization; type: cell-based; settings: PC-3 cells
Protocol: The PC-3 cell line was purchased from ATCC (Manassas, VA, USA), revived from liquid nitrogen storage, and cultured at 37 °C, 5% CO2. PC-3 cells were cultured in media containing DMEM, 10% heat-inactivated fetal bovine serum (FBS) (Gibco, Thermo Fisher Scientific, Inc., Waltham, MA, USA), and 10 mM HEPES.
A PC-3 cell suspension was prepared in 1X PBS at a concentration of 10^6 cells/100 μL. Eppendorf tubes (in triplicates) were pretreated with 5% bovine serum albumin (BSA) in PBS to block non-specific binding. Tyr^4-BBN, as a blocking agent, was diluted in 5% BSA in PBS. Then, 100 μL of cells and either 20 μg block or PBS 1X were added to each tube. Approximately 100,000 cpm of [^67Cu]Cu-SAR-BBN was added to the tubes. Cells were incubated at 37 °C at moderate speed to prevent cell settling. After each specified time point (30, 60, 120, 240, and 360 min), cells were centrifuged and the supernatant was aspirated from cell pellets, which was followed by two additional rinses with ice-cold PBS. Cells pellets were then collected and counted for activity on a gamma counter. To determine the fraction of internalized radiotracer, cells were treated with 2 × 0.5 mL of 20 mM sodium acetate (pH 4.0) for 2 min to remove surface-bound radioactivity and counted again for activity.

[2] = type: in vitro ADME, human
Protocol: Briefly, 100 µL of the radiolabeled complex was added to 100 µL PBS 1X or human serum (HSA […]) in triplicate. [^67Cu]Cu-SAR-BBN was incubated at 37 °C for 14, 24, 48, 72, and 96 h with moderate agitation. An aliquot (0.5 μL) was withdrawn at each specified time point. Radio-TLCs with a mobile phase of 50 mM DTPA were performed to evaluate the percentage of intact radiolabeled peptides.

[3] = Biodistribution in normal tissues; type: in vivo, C57BL/6 female mice; settings: for tissue uptake at 2 h / tissue uptake at 4 h / tissue uptake at 6 h / tissue uptake at 24 h / tissue uptake at 72 h / tissue uptake at 144 h / tissue uptake at 216 h / tissue uptake at 1 h: female, C57BL/6, mouse, in vivo, iv, 0.37 MBq, total radioactivity
Protocol: To determine the biodistribution of [^67Cu]Cu-SAR-BBN in normal tissues, 40 female C57BL/6 mice were evaluated in groups of 5 mice at various time points. [^67Cu]Cu-SAR-BBN was prepared in 0.9% saline with a concentration of 0.37 MBq (10 µCi) per 100 µL. Mice (n = 5) were injected with 0.37 MBq radiotracers via tail vein and sacrificed by cervical dislocation at 1 h, 2 h, 4 h, 6 h, 24 h, 3 days, 6 days, and 9 days. Blood, lung, liver, spleen, kidney, muscle, heart, bone, and pancreas were harvested and counted for activity on a gamma counter. The percent injected dose per gram for each tissue of interest (% ID/g) was calculated and expressed as Mean ± SD. All radioactivity measurements were corrected for decay.

SMILES: CC(C)C[C@H](NC(=O)C[C@H](O)[C@H](CC(C)C)NC(=O)[C@H](Cc1c[nH]cn1)NC(=O)CNC(=O)[C@@H](NC(=O)[C@H](C)NC(=O)[C@H](Cc1c[nH]c2ccccc12)NC(=O)[C@H](CCC(N)=O)NC(=O)[C@@H](Cc1ccccc1)NC(=O)CCOCCOCCOCCOCCNC(=O)CCCC(=O)NC12CNCCNCC(C)(CNCCNC1)CNCCNC2)C(C)C)C(N)=O [[^67Cu]Cu-SAR-BBN, metal not drawn]
- bound to the GRPR receptors ([1]; 37 °C): more than 50%
- internalized into the cells ([1]; 37 °C): about 20%
- total bound with blocking (non-specific binding, % of total added radioactivity) ([1]; excess Tyr4-BBN (20 μg block)): 5.8 ± 0.1%
- free 67Cu in human serum [2]: < 5%
- Kidney %ID/g ([3]; 1 h after i.v. injection of 0.37 MBq, mean, n = 5): 6.15 %ID/g
- tissue uptake at 2 h ([3]; Blood %ID/g): 0.62 %ID/g
- tissue uptake at 4 h ([3]; Blood %ID/g): 0.53 %ID/g
- tissue uptake at 6 h ([3]; Blood %ID/g): 0.54 %ID/g
- tissue uptake at 24 h ([3]; Blood %ID/g): 0.33 %ID/g
- tissue uptake at 72 h ([3]; Blood %ID/g): 0.39 %ID/g
- tissue uptake at 144 h ([3]; Blood %ID/g): 0.11 %ID/g
- tissue uptake at 216 h ([3]; Blood %ID/g): 0.06 %ID/g
- tissue uptake at 1 h ([3]; Bone %ID/g): 0.88 %ID/g
- tissue uptake at 2 h ([3]; Bone %ID/g): 0.4 %ID/g
- tissue uptake at 4 h ([3]; Bone %ID/g): 0.47 %ID/g
- tissue uptake at 6 h ([3]; Bone %ID/g): 0.46 %ID/g
- tissue uptake at 24 h ([3]; Bone %ID/g): 0.31 %ID/g
- tissue uptake at 72 h ([3]; Bone %ID/g): 0.25 %ID/g
- tissue uptake at 144 h ([3]; Bone %ID/g): 0.09 %ID/g
- tissue uptake at 216 h ([3]; Bone %ID/g): 0.09 %ID/g
- tissue uptake at 1 h ([3]; Heart %ID/g): 1 %ID/g
- tissue uptake at 2 h ([3]; Heart %ID/g): 0.58 %ID/g
- tissue uptake at 4 h ([3]; Heart %ID/g): 0.78 %ID/g
- tissue uptake at 6 h ([3]; Heart %ID/g): 0.84 %ID/g
- tissue uptake at 24 h ([3]; Heart %ID/g): 0.84 %ID/g
- tissue uptake at 72 h ([3]; Heart %ID/g): 1.35 %ID/g
- tissue uptake at 144 h ([3]; Heart %ID/g): 0.93 %ID/g
- tissue uptake at 216 h ([3]; Heart %ID/g): 0.58 %ID/g
- tissue uptake at 2 h ([3]; Liver %ID/g): 5.08 %ID/g
- tissue uptake at 4 h ([3]; Liver %ID/g): 5.9 %ID/g
- tissue uptake at 6 h ([3]; Liver %ID/g): 6.78 %ID/g
- tissue uptake at 24 h ([3]; Liver %ID/g): 3.8 %ID/g
- tissue uptake at 72 h ([3]; Liver %ID/g): 4.03 %ID/g
- tissue uptake at 144 h ([3]; Liver %ID/g): 1.31 %ID/g
- tissue uptake at 216 h ([3]; Liver %ID/g): 0.59 %ID/g
- tissue uptake at 2 h ([3]; Lung %ID/g): 1.95 %ID/g
- tissue uptake at 4 h ([3]; Lung %ID/g): 2.68 %ID/g
- tissue uptake at 6 h ([3]; Lung %ID/g): 3.25 %ID/g
- tissue uptake at 24 h ([3]; Lung %ID/g): 1.81 %ID/g
- tissue uptake at 72 h ([3]; Lung %ID/g): 1.89 %ID/g
